In this test the target is biotinylated human HHAT-Avi-1D4 (pHR-CMV-TetO2-HHAT-wildtype-Avi-1D4) (Homo sapiens, natural variant VAR_024743, strain, biotin on the biotinylation tag). Put plainly: cell-based or functional assay.
biotinylated human HHAT-Avi-1D4 (pHR-CMV-TetO2-HHAT-wildtype-Avi-1D4) (Homo sapiens, natural variant VAR_024743, strain, biotin on the biotinylation tag), sequence (Q5VTY9 other isoform, or with tags, fused parts or gaps, change not shown): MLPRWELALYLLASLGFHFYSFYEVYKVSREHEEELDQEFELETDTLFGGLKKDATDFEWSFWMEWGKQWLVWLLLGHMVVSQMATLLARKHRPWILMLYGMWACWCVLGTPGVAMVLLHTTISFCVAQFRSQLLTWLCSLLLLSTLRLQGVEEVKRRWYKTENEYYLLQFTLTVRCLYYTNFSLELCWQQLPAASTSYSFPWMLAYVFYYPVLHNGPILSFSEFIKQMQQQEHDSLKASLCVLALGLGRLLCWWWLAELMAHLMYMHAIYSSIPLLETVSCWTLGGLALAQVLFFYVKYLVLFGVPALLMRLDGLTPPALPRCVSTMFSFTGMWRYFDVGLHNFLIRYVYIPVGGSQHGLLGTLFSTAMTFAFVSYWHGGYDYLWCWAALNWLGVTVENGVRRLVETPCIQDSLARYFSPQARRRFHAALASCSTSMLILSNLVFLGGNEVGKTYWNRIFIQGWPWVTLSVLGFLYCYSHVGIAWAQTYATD

B1: nanobody NB177 (VHH)
VHH: QVQLVESGGGLVQAGGSLRLSCTASGAIFSTYDVSWYRQAPEKPRELVAIITRGGNTHYADTVKGRFTISRDNAKNTVYLQMNSLKPEDTAVYYCHAGVQGAMLGPRNYWGQGTQVTVSS
Regarding B1, the “IC50 of inhibition of HHAT-catalysed palmitoyl transfer to a SHH peptide (acyl-cLIP assay); blocks HHAT with SHH” value stood at 0.9 nM.

B2: nanobody NB169 (VHH)
VHH: QVQLVESGGGLVQAGGSLRLSCAASGSIRSINGMGWYRQAPGKQRELVAALSSGGSTNYADSVKGRFTISRDNAKKTVNLQMNSLKPEDTAVYYCNARRGGRSWSEGPPYDYWGQGTQVTVSS
In the case of B2, the “IC50 of inhibition of HHAT-catalysed palmitoyl transfer to a SHH peptide (acyl-cLIP assay); blocks HHAT with SHH” value amounted to 1.3 nM.

The values are drawn from article PMC8693861, “Structure, mechanism, and inhibition of Hedgehog acyltransferase” (Molecular Cell, 2021).
